Assay [1] deals with T1, human ANGPT2 (SPR analyte) (human, UniProt O15123 275-496, limits assumed).
T1 construct: domain: FLD domain; also called HuANGPT2; human ANGPT2 FLD domain
T1 sequence (looked up): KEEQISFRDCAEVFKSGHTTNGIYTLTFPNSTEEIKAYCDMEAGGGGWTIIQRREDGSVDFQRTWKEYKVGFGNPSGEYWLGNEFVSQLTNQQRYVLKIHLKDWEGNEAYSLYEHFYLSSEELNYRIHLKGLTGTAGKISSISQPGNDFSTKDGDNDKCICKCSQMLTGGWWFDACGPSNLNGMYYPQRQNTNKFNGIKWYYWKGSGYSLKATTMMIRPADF
The assay can be described thus: SPR (ProteOn XPR36), antibody captured on Protein A/G, ANGPT2 as analyte, 1:1 Langmuir fit. On the procedure: (§1) The binding affinity to the various ANGPT2 analytes is determined by surface plasmon resonance (SPR) using a ProteOn XPR36 (Bio-Rad). Unless otherwise stated, all reagents are obtained from Bio-Rad. The running buffer for all assays and dilutions (except where stated) is phosphate buffered saline (PBS)/ethylenediamine tetraacetic acid (EDTA) with 0.01% Tween20 (PBS-T-EDTA). PBS-T-EDTA is prepared by adding 100 μl of 100% Tween20 to 2 L of PBS-T-EDTA with an initial concentration of 0.005% Tween20 to make a final Tween20 concentration of 0.01%. The general linearized model (GLM) sensorchip is normalized, pre-conditioned, and activated with an equal mixture of 1-ethyl-3-[3-dimethylaminopropyl]carbodiimide (EDC)/N-hydroxysulfosuccinimide (s-NHS) in the horizontal direction for 300 sec at a flow rate of 30 μl/min. Immobilization is then is done with Recombinant Protein A/G (Thermo Scientific) (60 μg/ml in 10 mM acetate pH 4.5) in the horizontal direction for 300 sec at a flowrate of 30 μl/min resulting in about 4370-4875 response units (RUs) of Protein A/G on the surface. The sensorchip is then deactivated with 1M ethanolamine HCl in the horizontal direction for 300 sec at a flowrate of 30 μl/min. The sensorchip is stabilized with 18 sec of 0.85% phosphoric acid at a flowrate of 100 μl/min 3 times horizontally and 3 times vertically.
(§2) Each ANGPT2 antibody is captured on the Protein A/G surface vertically for 300 sec at a flowrate of 30 μl/min resulting in a capture level of about 2500 RU. The baseline is stabilized by injecting PBS-T-EDTA for 60 sec at a flowrate of 100 μl/min horizontally with dissociation of 120 sec. The analyte (e.g., HuANGPT2) is injected horizontally over the captured antibody for 300 sec at a flowrate of 30 μl/min and a dissociation for 1800 sec. […] The surface is regenerated by injecting 0.85% phosphoric acid for 18 sec at a flowrate of 100 μl/min one time horizontally and one time vertically. PBS-T-EDTA is injected for 60 sec at a flowrate of 100 μl/min one time vertically and one time horizontally.
(§3) The interspot (interactions with sensor surface) and blank (PBS-T-EDTA with 0.01% Tween20 or 0 nM of analyte (here HuANGPT2)) are subtracted from the raw data.

Assay [2] addresses T2, cynomolgus (cyno) ANGPT2 (cynomolgus, UniProt A0A2K5VNX6 275-496).
T2 construct: domain: FLD domain; also called cyno ANGPT2 FLD domain
T2 sequence: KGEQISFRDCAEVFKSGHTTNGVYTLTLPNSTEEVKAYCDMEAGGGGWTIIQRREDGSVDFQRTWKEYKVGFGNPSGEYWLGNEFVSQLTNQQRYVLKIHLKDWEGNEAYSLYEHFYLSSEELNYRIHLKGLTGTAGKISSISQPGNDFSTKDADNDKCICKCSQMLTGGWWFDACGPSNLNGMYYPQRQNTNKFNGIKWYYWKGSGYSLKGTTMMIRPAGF
Described as above. The method, then: as §1, §2, §3

Assay [3] has as its target T3, rabbit ANGPT2 (rabbit, UniProt G1T9B3 275-496).
T3 construct: domain: FLD domain; also called rabbit ANGPT2 FLD domain
T3 sequence: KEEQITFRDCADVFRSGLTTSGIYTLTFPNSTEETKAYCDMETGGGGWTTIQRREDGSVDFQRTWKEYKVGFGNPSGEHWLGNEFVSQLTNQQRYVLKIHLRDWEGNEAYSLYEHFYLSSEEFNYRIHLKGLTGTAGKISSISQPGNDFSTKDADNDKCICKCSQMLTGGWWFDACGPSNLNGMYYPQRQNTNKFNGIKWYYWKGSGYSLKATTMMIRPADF
The assay can be described thus: SPR (ProteOn XPR36), antibody captured on Protein A/G, rabbit ANGPT2 as analyte. The method, then: as §1, with “vertically. […]” for “vertically.”

In assay [4] the target is T4, Human ANGPT2 Dimer (CC-FLD) (human, UniProt O15123 74-496, limits assumed).
T4 construct: domain: CC-FLD; also called ANGPT2 protein with His-tag; not shown: His-tag
T4 sequence (looked up): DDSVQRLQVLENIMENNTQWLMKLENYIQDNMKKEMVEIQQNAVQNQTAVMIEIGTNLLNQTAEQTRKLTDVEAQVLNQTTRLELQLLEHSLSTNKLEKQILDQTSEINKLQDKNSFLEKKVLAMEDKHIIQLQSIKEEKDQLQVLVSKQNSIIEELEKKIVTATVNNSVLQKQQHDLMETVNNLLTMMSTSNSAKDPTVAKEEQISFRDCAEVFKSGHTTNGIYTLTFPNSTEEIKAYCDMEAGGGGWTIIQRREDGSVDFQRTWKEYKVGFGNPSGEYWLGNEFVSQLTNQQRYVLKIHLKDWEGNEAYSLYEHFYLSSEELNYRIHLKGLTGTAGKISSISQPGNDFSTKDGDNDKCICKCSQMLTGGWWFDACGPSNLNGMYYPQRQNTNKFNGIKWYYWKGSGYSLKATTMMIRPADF
Description: flow cytometry blocking assay: antibody titrated against His-tagged human ANGPT2 dimer (CC-FLD) binding to HEK293 human Tie2 cells. The method, then: Human ANGPT2 Dimer (CC-FLD) is pre-incubated with the testing antibodies. The ANGPT2/Antibody mixture is then incubated with HEK293 human Tie2 cells at 4° C. After washing, the cells are stained with anti-His-AF647 (from GenScript) for detection of the His-tag on the ANGPT2 protein. The binding of the secondarily labelled ANGPT2 to human Tie2 cells is detected by FLOW cytometry. The average of the duplicate values for each concentration point is used to derive the curve fit graphs. Antibodies that prevent ANGPT2 from binding to the Tie2 cells are considered blocking antibodies. The results are shown in FIGS. 3A-3G and the EC50 values are shown in Table 5 based on the average of duplicate values.

Assay [5] has as its target T5, rhAngiopoietin-2 (R&D systems cat 623-AN/CF) (human, UniProt O15123 19-496, limits assumed).
T5 sequence (looked up): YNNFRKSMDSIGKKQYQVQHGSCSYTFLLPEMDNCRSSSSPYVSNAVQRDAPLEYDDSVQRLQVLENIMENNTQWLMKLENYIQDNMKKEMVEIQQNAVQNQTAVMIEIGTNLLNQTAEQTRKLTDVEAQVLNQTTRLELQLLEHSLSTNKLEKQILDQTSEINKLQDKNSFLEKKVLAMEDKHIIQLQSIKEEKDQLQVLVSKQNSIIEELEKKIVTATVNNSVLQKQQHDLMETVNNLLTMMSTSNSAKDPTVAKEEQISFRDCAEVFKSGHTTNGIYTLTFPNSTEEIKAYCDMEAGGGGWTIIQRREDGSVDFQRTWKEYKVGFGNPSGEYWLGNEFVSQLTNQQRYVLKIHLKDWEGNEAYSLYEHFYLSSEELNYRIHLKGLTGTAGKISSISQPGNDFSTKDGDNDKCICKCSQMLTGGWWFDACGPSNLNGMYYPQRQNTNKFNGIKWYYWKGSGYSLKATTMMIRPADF
The assay can be described thus: cell-based or functional assay.

“And” between values parts separate entries of the source, which are not always exact repeats. Equal values may be shown once.

B1: ANGPT2-opt-13 (humanized) (antibody, human IgG1, kappa, V domains shown)
VH: QVQLVQSGAEVKKPGSSVKVSCKASGYIFIDYFINWVRQAPGQGLEWMGKIGPGSGSSSSNEKFKGRVTITADKSTSTAYMELSSLRSEDTAVYYCAREAFDYDGDYYGMAYWGQGTLVTVSS
VL: EIVMTQSPATLSVSPGERATLSCKSSQSLLSSGNQKSFLAWYQQKPGQAPRLLIYGASTRETGIPARFSGSGSGTEFTLTISSLQSEDFAVYYCQNDHSYPITFGQGTKLEIKR
notes: also called Ang2-opt-13; ANGPT-opt-13
For B1, in assay [1], the Kd stood at 0.144 nM, the koff stood at 1.89e-05 s⁻¹ and the kon is 132000 M⁻¹ s⁻¹. In assay [2], this molecule displayed a Kd of 0.146 nM, a koff of 2.08e-05 s⁻¹ and an on-rate constant (kon) of 142000 M⁻¹ s⁻¹. This molecule had a dissociation constant Kd in assay [3] of 0.133 nM. For the same molecule, in assay [4], the EC50 stood at 13 nM. Further, in assay [5], the “Tie2 phosphorylation functional assay, EC50” value is 4.2 nM and 4 nM.

The record behind these values is patent publication US20200407435A1 (Boehringer Ingelheim, published 2020).
